Experimental data taken from the DeepSol protein solubility set.

Assay: soluble on expression in E. coli; label from the status in PepcDB or PDB records
For “MNILLANPRGFCAGVDRAISIVELALEVHGAPIYVRHEVVHNRFVVDDLKAKGAIFVEELDEVPDSAIVIFSAHGVSQAVRQEAKRRGLKVFDATCPLVTKVHMQVARASKKGTKAILIGHQGHPEVIGTMGQYYNEQAGIFLVETVEDIANLPIHHHEDLTFMTQTTLSVDDTSGMIEALKNKYPAIQGPRKNDICYATTNRQQAVRELAKQAQLVLVVGSKNSSNSNRLAELASRMGVLAKLIDGPQDILPEWLDNVETIGITAGASAPEILVQSVVAHLQTLGATSVANLVGCEENMVFEVPKELRVREVKMAGDPLEHHHHHH”, the “soluble on expression in E. coli” value was “not soluble”. For “MSLYRVFEALDELSAIVEEARGVPMTAGCVVPRGDVLELIDDIKDAIPGELDDAQDVLDARDSMLQDAKTHADSMVSSATTEAESILNHARTEADRILSDAKAQADRMVSEARQHSERMVADAREEAIRIATAAKREYEASVSRAQAECDRLIENGNISYEKAVQEGIKEQQRLVSQNEVVAAANAESTRLVDTAHAEADRLRGECDIYVDNKLAEFEEFLNGTLRSVGRGRHQLRTAAGTHDYAVREGHHHHHH”, the “soluble on expression in E. coli” value was “soluble”. With “MADQEHIDAGLLSTNFDMIQALPLNVKQRVCALKNLQMKTIQIESDFYKRVHELEIEFEGKFKSTFDQRKAIVAGEVEPTKEQIDTPILEGLEGDQLAELYKAAEADPSAKGIKDFWLTALRTHDLVAEAIEEHDVPILSYLTDVTTAASKDPAGFKIEFHFATNPYFKNQVLTKTYLLGFDPDAEAPLQFDGPHVIRAVGDTIEWEDGKNVTKKAVKKKQKKGANAGKFLTKTVKADSFFNFFEPPKSKDERNEDEDDEQAEEFLELDYEMGQAIRDTIIPRAVLFYTGELQSDDMFDFPGEDGDDVSDFSDDEA” the “soluble on expression in E. coli” value was “soluble”. With “MFKYSKDGVSVLTILDTRRAKINGLFPVKVQVVFRRKQKYYSTGKELSKEDWDRLLKAKSQLLMEVRTDIESSFSIIKQQVSELIQKGEFSFEILSIRLGRHTKEINLRTAFELKMKELEDNEQASTYLNYRSALKSLECFGGTNIPLDRITVEWLKHCERFWISNGKSYSSVSIYFRTLKCILNRAVRDGILKESSFPFGKNKYEIPEGHGRKLALTLPEIKRVMSFQDSTNELEEFRDLWFFSYLCNGINFMDLLFLQYSNIVDGEICFIRSKTSRTTKHSKEIRATITPEMWDIIHKWGNPNISPQTYIFKYAKGNEDAFEKIKLVRRIVTKCNRKLKKIAQGTGIAQLTTYTARHSFATVLKRGGAKTSYISESLGHSNLTVTENYLACFEKEERIRNARLLTNFDNKM” the “soluble on expression in E. coli” value was “not soluble”. For “MGSDKIHHHHHHMAATSDYDVIVVGGGHNGLTCAGYLARAGKRVLVLERRPIVGGAVCTEEVIPGYKIDVGSSAHIMIHLTPIVRDLELERHGLEYIDMDPYAFYPLPDGSGAIYFYRDVERTCQSIATVSPRDAEAYRRFLDFWTPLNEAVFDVFLNPPSVTRLFGKVASSIPRLPKAEQKVLEVTRRLFTSYAQLIEETFESEAMRAAMTWLAAQSGPPPDEIGAGDFFGWHAMLHYSGAKHPRGGSGMLTQAMARSLKAMGGEVILDAPVRRILVQNGRVQAWKRQTVSAIRPRLLFPTLTC”, the “soluble on expression in E. coli” value was “not soluble”. For “MSLDAELVDWELAVTTAKKLVRPGPQRSRAEADEIVSELRRLAVVAEGHVQDYTQLVPAGPPTPIAVVDRPEWVRSNVAGLRVATMPLIEKLSDQSRGRLAAAVGRRVTGVQVGSALAYLAGKVLGQFEVFLPPEEYEAGSAASAPSLAKPGAPTPVGRLSLVAPNIAHAEETLRVVPRDFRLWVCLHEQTHRSQFTAVPWLREHLESEIAAFIGATDLDPDVLADRLRSAVTALRSAVRDHGPDTPSVVEALQTPAQRAVLDRLQALMSLLEGHADQVMDAVGPQVVPTVADIRGKFDNRRSGGSPIDRFLRRLLGLDLKMQQYRQGGAFVRAVVAEVGVEGFNHVWQSPRTLPTRPELTDPGAWMLRVLGTREGHHHHHH”, the “soluble on expression in E. coli” value was “soluble”. For “GHHHHHHLEKCVFVTVGTTSFDDLIACVSAPDSLQKIESLGYNRLILQIGRGTVVPEPFSTESFTLDVYRYKDSLKEDIQKADLVISHAGAGSCLETLEKGKPLVVVINEKLMNNHQLELAKQLHKEGHLFYCTCSTLPGLLQSMDLSTLKCYPPGQPEKFSAFLDKVVGLQK”, the “soluble on expression in E. coli” value was “not soluble”. In the case of “MFSGIKGPNPSDLKGPELRILIVHARWNLQAIEPLVKGAVETMIEKHDVKLENIDIESVPGSWELPQGIRASIARNTYDAVIGIGVLIKGSTMHFEYISEAVVHGLMRVGLDSGVPVIFGLLTVLNEEQALYRAGLNGGHNHGNDWGSAAVEMGLKALY”, the “soluble on expression in E. coli” value is reported as “soluble”. For “TPDFGFTLRGNFTYSKNKVQNWEQAYLEYPYLEYNNFPYNSIRGYQAVGLFKDEDDIKYSPKQTFGEVMPGDIKYKDINGDGMVDKLDMVPLTHSTYPLLMYGLGAEIRYKNLTLGVLFKGTGKTSFFYVGQKTTVNDETRLNGMGYMPFFEGNTGNVLTLAANPVNRWIPRDYAIAHGIDPSLAENPNARFPRLQYGNNSNNSQLSTFWQGDSRYIRLQEITLNYHLATAFLRRIGVSSLDIQFVGNNLYVWDKVKLFDPEQARWNGRVYPIPSTYSLQLYVNL”, the “soluble on expression in E. coli” value was “not soluble”. In the case of “PTGNNAEICLLPLDYGPCRALLLRYYYDRYTQSCRQFLYGGCEGNANNFYTWEACDDACWRIE”, the “soluble on expression in E. coli” value is reported as “soluble”. With “MNGAIFPWREDSRFQLLIDGPAFFPRMIAAIDRAEQQVDLELYLVEAGACADAVVRALVEAGRRGVIVRCLFDDFGSKAFDAGLRKQLTDAGVILRFYNPIHWRRGVRNFYRDHRKILVVDKALAVVGGTGVTDEFWEPDKDVSQWHEVMVEIAGPLVLDWQALFDRQFHANARRFAWRPKQNFGLDHLPKAPVTGEGLGRVAYADSRQHRDILQSLVRTLHSGQKRIWLATPYFLPTWKVRRALRSAAARGVDVRLLLTGPRTDHPSVRYAGHRYYPRLLRAGVKVFEYQPCFLHLKMVLIDDWVSIGSCNFDHWNLHFNLEANLEAHDPGLTRDVAASFEKDFALSTEITLEDWKARPLWRRVKQRLWGWIDRLVVNLLDQRN” the “soluble on expression in E. coli” value was “not soluble”. With “MGSDKIHHHHHHMDNEIVSSWHQGELAVQQRAGTDERMAEIGPKFIREFMPQQHRDFFQSLSMIFVGYTDHCSNAYASVLFGAPGFIQSPTETELVINTQSTIGDFIIEDLREGDHIGLVGIEFDTKRRNRINGVITDINQKNIKVKVLQSYGNCPKYIQPKEFAPNRSYSEFTTVSLDQLSQKYREIISSADTFFIASSFDDGQKFRNRGVDVSHRGGEVGFVSINAAGQLLVDDYVGNGFFNTLGNLLENPIASLLFCDWQTGHVLKIAVSSEILWHDEQQDSVVLAAGKVKRSLCFTPIKIEQFNNGLAYIQQF” the “soluble on expression in E. coli” value was “not soluble”. In the case of “MSLRKIKIKEIVCIIGLLGTLTAHSQNTVWQIGNKDKSAKEFKFYKNDYRNYINDVYLYEVGRNHSADFPYFLPGPSDAWAGGISGQAVIGFSLAEAPSPTTQIQLRLLFAETHPSSPPRLEVRLNSFEKSIQTPKGTNPEYLDTKETTSKELSVTLDIPADEFRAGNNTLTIRNISGSWVAFDQIKLTSDSPLQTNNLTTKASLVSSAFSPVLVVGKKKELRQPVKIKAVNWHHKKRPVELQVGNFPPERYVLSPGINNIETSIPEVTAPCELPIILKEQGKTVSKINEKATPVKKWTVYLVQHTHTDIGYTKPQTEILSEHLRYIDYAIEYCEQTKDYTNDAKFRWTCESAWAVDEYLKNRPEEQVNKLKKYIAEGQIEVASMYFNMSEIVDENSFKTFLQPVKEFRKHGIPSALAMQNDVNGIAWCLADYLPDLGIKYLWMGEHHYKSQVPFNMPTVFQWESPSGKPILTYRADHYNTGNFWGIEQGDIQKTEPKLLHYLSELERKHYPFDAVGVQYSGYFTDNSPPSIIECKLIREWNEKYAYPKLRSATASEFMDYVTERYGDKIPAYRAAYPDWWTDGFGSAARETAASRKTHSDMTAVEGLLSMAVLKDKCLPQATHQQIEHIHESLLFYDEHTFGASESVSDPLCENSQVQWGEKSAYAWEAVKRTQMLYETSVGLLQGDLRRGKNPTLTIFNTLNWKRSEMLTVYIDFEVIPRNQFFEITDFQGHSLKVQPIRYRREGCYYAIFAEDIPPMGYKTFEIVFKQPSTDTGTITINNASIENHFYKLQLNPDKGTIQSLYDKELNCELVDSSSPWELGAFIYEKLGNRDQLAQYRLDDYNRTGLSECRIIDSSNGPIYQRILLQGKSPGTDEAFGVNLEIKLYHDTKRIELEYAIKRLPETDPSGIYVAFPFQLPEGKLAFDVQGGTVISGKNQLEGTSTDWNTVQNFVSVQNEGHHHHHH”, the “soluble on expression in E. coli” value is reported as “not soluble”. In the case of “MSLSAHVEYFKPPAESELPDNAYGKLVREGYALFVDTKRLAPQFVGNGLNCSNCHLDQGRLANSAPLWGAYPMYPAYRKKNDKVNTFAERLQGCFQFSMNGGKPPAADSPQITALSVYAYWLASKAPLGVELPGRGYPDVAQPAKGYDLKQGAAVYQAQCAVCHGDNGQGQKAGADYVMPPLWGKDSYNWGAGMHRINTAASFIKHNMPLGKGGSLSDQQAWDVAAFVNSHERPQDPRLVEGSIEKTRVKFHANDGVNLYGQTVEGVLIGQGIREGHHHHHH”, the “soluble on expression in E. coli” value is reported as “not soluble”. With “MDPFRFQVEARAGRARVGRLFTPHGAVETPLFMPVGTAGSVKGLMPKDLEAIGSQVLLTNTYHLLLRPGPERVRALGGLHGFAGWKGPWLTDSGGFQVMSLGHMRRIDEEGVVFQSHLDGRLIKLTPERSIAVQEALGADLIMAFDECPPYPSPREYLEASLERTLRWLERSLKAKTRPDQALFGIAQGGTDPELRRRSTLETIRFDLPGYAIGGLAVGEPKEAMFAMVELSTRLLPEDRPRYLMGVGHPEDLVAAMGLGVDLFDCVYPTRTGRFGSALVPEGRLNLKNARFLEDRRPLEEGCDCYTCQTFGRAYLAHLVRAGEMLGGILLSLHNLRHLHRLTEAARQAIREGRYGDFAREFARRRFGREVPPWFREALAAGGHG” the “soluble on expression in E. coli” value was “soluble”. With “MKAVINNTNPENTPPTRAIKRLERDVLRMGALVEQSFRLSHQALFARDLTAAEELPRLDKKIDRFYRQIESDCTSIITLQAPTAQDLRCLSAFMQLVRDLERIGDYAKDLAEIAIKIFPYPPHASLPEIALMSNNAQAMLATSLLALADLDEINGRRLKYLDDDVDHAYNQLYHTLAHQKDVPGVIEPILLLTLAIRCLERMADHATNIGQRVAYIVTGQR” the “soluble on expression in E. coli” value was “not soluble”. In the case of “MASTQCVNIQKRDIIRGASDVSWFDVLLEKGACVTISAQDKPSVDLWLDDVIQESLIEGRHYCTKASTSDLKADARCPTQGEATMREEYLDGYVCKRSFSDRGWGNGCGLFGKGSIVGCAKATCGANDIIKSYSYDSPKVKYVIGAEVHQGKLLTNNSTDRIVKTTFTAESEKHTITIADYGSMDFTCRVVASAELSNIRMIELDGHMFNVHEDWLSDLPLPSKISGGSWHGMDRLVVFKEPHAVKMEIQACGDQRPAVFKSLVKAEEVTKTSNSYHLTGGHVDCRVSTLNLRMKGLTYQMCSSSFVWHKRPVATQHGTVAMEVKYKGSDAPCRIPVSVEKEGYNGKNFGNLITANPFAANNEAVVFLELEAPLGVSTIKVGGAVFQWKQEGSSIGKALEHHHHHH”, the “soluble on expression in E. coli” value is reported as “not soluble”. In the case of “MVSDIVLEVQSLHVYYGAIHAIKGIDLKVPRGQIVTLIGANGAGKTTTLSAIAGLVRAQKGKIIFNGQDITNKPAHVINRMGIALVPEGRRIFPELTVYENLMMGAYNRKDKEGIKRDLEWIFSLFPRLKERLKQLGGTLSGGEQQMLAIGRALMSRPKLLMMDEPSLGLAPILVSEVFEVIQKINQEGTTILLVEQNALGALKVAHYGYVLETGQIVLEGKASELLDNEMVRKAYLGVA”, the “soluble on expression in E. coli” value is reported as “soluble”. With “MHLDRQSLEKAKHLIQSGLIDTIEVGTIKGLQEIHRFLFEGLYEFAGKIRDKNIAKGNFRFANCLYLDLILPRIESMPQNNFNQIVEKYVEMNIAHPFLEGNGRATRIWLDLLLKKELKKIVLWDRIDKAAYLSAMERSPVNDLEIKTLLKKHLSSNTNDPLTLIKGITQSYYYEGLLEHHHHHH” the “soluble on expression in E. coli” value was “not soluble”.
